Laboratory results taken from patent US20230093708A1, “PROTEIN NANOPARTICLE DESIGN AND APPLICATION” (Duke University, priority 2020, published 2023).
Non-standard residues stand in square brackets, D forms with d. Phe(4-N3) = [N-]=[N+]=Nc1ccc(C[C@H](N)C(=O)O)cc1

Tests used:
[1] = biological target: αvβ3 integrin (Homo sapiens, UniProt P05106+P06756); experiment: SPR of crosslinked and native pAzF diblock constructs; type: binding; conditions: crosslinked UAA5-40-based constructs
Experimental: (§1) Though we were interested in the downstream effects of the treatment with crosslinked nanoparticles, we also wanted to investigate how chemical crosslinking affected the binding to the cell membrane receptors themselves. For this, the binding affinities of crosslinked and native diblock architectures were evaluated using surface plasmon resonance (SPR).
To characterize the integrin-targeting constructs, we started by determining the KD values of the UAA5-40-based constructs. […] A closer look at the SPR sensograms describes the mechanism for this effect where the main reason for the increased KD for the ligands is a result of vastly different association rates (kon) rather than differences in koff.

[2] = biological target: DR5 (Homo sapiens, UniProt O14763); experiment: SPR of DR5-targeting UAA5-40 constructs; type: binding; conditions: native construct, same concentration range
Experimental: as §1
This extremely good binding constant can be mainly attributed to the koff rate which is so low that it is most probably even below the limit of detection of the SPR instrument. As opposed to the integrin-targeting UAA5-40 particles, we however also observed very strong binding for the native Tn3 construct in the same concentration range (FIG. 53B). […] Principally, this was not a too unexpected result since we already knew that apoptosis induction via DR5-binding required downstream trimerization of the ligand-bound DR5 receptors in the cell membrane. Therefore, we had expected that the reported multivalency requirement for Tn3-action was at least partly stemming from this mechanistic effect rather than the DR5-binding itself.

[3] = DLS of native and crosslinked pAzF diblock constructs in PBS and GuHCl; type: physicochemical
From the text: We wanted to thoroughly investigate the effects of pAzF-introduction as well as nanoparticle crosslinking on nanoparticle self-assembly. For this, we started by characterizing solely our five different ELP/RLP diblock architectures without any C-terminal functionalization. After expression and purification of the diblock constructs using ITC, the pAzF-containing constructs were crosslinked in solution by exposure to UV irradiation and characterized using dynamic light scattering (DLS). […] Generally, both processes seem to have increased the measured radii with this effect being more pronounced for the worm-forming constructs.
Apart from changes in nanoparticle morphology we were particularly interested in the effect pAzF-crosslinking had on their stability. […] GuHCl is a well-known denaturing agent that disrupts any inter- and intramolecular electrostatic forces and completely breaks down the quaternary, tertiary and secondary structure of most known proteins. Covalent bonds—such as the ones formed by pAzF-crosslinking—however remain unaffected by GuHCl, thus, the addition of this denaturing agent was expected to give us insights on the stability of our crosslinked nanoparticles. […] All native samples on the other hand resorted to complete unimerization upon exposure to GuHCl. As the Rh values for the crosslinked particles in GuHCl were generally larger than in PBS, the DLS data furthermore indicates a swelling behavior in the presence of the denaturing agent. This can most probably be attributed to the RLP core which is assumed to be completely collapsed in PBS but will however try to reach an elongated, random-coil morphology in the presence of GuHCl.
The first step of the characterization process was to produce crosslinked particles for the functionalized diblock constructs and to analyze whether the attachment of the ligands had caused any significant changes in particle size. […] Whatever the reason was, it had no effect on the crosslinking process as the particles still remained stable after GuHCl exposure.
Dynamic light scattering of cross-linkable protein nanoparticles was performed. […] However, these crosslinked particles remain assembled, actually growing slightly in size due to chain swelling of the core and corona in this new buffer. These novel scaffolds support various targeting domains and assemble into nearly identically sized nanoparticles between […] in hydrodynamic radius.

[4] = Critical assembly concentration (CAC) by DLS dilution series; type: physicochemical
Experimental: Lastly, we also wanted to determine the critical assembly concentration (CAC) of the individual constructs. The Rh values were measured with DLS over a dilution series from the mid-micromolar down to the low nanomolar range. […] Curiously, the mere introduction of crosslinking sites seems to dramatically decrease the CAC. Generally, the worm-forming constructs had lower CACs than their spherical analogues and so do pAzF-containing constructs in comparison to analogous pAzF-free polypeptides.

Chain of αvβ3 integrin (P06756 31-889 limits assumed): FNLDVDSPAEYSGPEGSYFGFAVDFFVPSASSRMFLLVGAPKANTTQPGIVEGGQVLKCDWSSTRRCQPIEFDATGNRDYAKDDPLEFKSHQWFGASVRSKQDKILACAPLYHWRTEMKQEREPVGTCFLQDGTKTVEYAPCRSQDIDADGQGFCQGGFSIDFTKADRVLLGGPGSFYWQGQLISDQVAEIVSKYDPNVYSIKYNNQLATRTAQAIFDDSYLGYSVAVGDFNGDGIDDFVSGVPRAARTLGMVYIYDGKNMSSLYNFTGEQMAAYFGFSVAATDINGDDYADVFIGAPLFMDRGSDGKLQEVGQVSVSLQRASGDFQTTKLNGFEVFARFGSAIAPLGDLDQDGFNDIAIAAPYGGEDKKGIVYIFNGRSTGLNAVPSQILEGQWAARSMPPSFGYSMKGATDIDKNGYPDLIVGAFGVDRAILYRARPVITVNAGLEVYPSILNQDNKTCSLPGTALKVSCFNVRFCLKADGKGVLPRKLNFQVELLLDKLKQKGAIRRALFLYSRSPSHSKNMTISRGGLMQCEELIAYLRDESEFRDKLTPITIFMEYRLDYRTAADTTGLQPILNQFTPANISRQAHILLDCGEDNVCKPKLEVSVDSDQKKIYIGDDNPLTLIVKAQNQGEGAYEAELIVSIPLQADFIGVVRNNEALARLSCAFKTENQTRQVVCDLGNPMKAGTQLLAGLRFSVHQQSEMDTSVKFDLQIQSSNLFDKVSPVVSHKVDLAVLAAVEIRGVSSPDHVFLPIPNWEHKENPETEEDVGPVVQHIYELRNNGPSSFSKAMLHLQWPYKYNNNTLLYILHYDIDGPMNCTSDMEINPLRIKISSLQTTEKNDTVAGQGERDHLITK
Chain of αvβ3 integrin (P06756 891-1048 partner limits assumed): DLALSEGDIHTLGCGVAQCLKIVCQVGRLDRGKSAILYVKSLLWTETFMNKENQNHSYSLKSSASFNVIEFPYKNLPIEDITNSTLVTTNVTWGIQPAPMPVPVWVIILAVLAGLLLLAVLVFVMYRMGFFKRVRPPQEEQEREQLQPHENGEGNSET
Chain of αvβ3 integrin (P05106 27-788): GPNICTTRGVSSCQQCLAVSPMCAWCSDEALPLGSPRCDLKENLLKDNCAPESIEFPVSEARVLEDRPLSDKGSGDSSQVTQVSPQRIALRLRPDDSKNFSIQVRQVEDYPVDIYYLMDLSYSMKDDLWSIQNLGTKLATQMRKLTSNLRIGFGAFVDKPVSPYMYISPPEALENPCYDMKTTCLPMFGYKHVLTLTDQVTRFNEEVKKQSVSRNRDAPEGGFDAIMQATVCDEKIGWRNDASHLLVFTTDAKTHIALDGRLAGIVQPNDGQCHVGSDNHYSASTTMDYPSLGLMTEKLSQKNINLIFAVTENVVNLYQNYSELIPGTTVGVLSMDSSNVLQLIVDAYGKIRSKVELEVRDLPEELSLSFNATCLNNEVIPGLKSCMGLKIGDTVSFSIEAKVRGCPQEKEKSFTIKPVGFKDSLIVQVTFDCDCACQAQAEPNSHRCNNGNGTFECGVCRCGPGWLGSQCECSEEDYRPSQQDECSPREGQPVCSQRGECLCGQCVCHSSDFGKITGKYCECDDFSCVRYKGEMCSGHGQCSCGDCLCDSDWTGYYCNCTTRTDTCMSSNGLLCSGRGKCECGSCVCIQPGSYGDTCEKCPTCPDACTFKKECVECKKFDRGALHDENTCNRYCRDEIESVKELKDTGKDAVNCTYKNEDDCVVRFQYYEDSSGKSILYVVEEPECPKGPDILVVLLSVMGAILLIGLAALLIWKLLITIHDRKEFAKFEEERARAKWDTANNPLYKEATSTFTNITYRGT

GRGDSPAS: UAA5-40-K8D4-ligand construct with integrin-targeting GRGDSPAS ligand (SEQ ID NO: 76)
Kd [1]: 0.02 µM

B1: Tn3: UAA5-40-K8D4-ligand construct with DR5-targeting Tn3 ligand (SEQ ID NO: 62) (protein)
chain: AIEVKDVTDTTALITWAKPWVDPPPLWGIELTYGIKDVPGDRTTIDLQQKHTAYSIGNLKPDTEYEVSLISFDPYGMRSKPAKETFTT
Kd [2]: 0.00025 µM

B2: UAA4-80: pAzF-containing worm-forming diblock construct (protein)
chain: QYPSDGRGQYPSDGRGQYPSDGRGQYPSDGRG[Phe(4-N3)]QYPSDGRGQYPSDGRGQYPSDGRGQYPSDGRG[Phe(4-N3)]QYPSDGRGQYPSDGRGQYPSDGRGQYPSDGRG[Phe(4-N3)]QYPSDGRGQYPSDGRGQYPSDGRGQYPSDGRG[Phe(4-N3)]QYPSDGRGQYPSDGRGQYPSDGRGQYPSDGRG[Phe(4-N3)]
RH (nm) ([3]; 15 μm in 7.2M GuHCl, crosslinked): 138.1 ± 12.5 nm | RH (nm) ([3]; 15 μm in 7.2M GuHCl, native (not crosslinked)): 7.4 ± 1.9 nm | RH (nm) ([3]; 15 μm in PBS, crosslinked): 86.2 ± 4.5 nm | RH (nm) ([3]; 15 μm in PBS, native (not crosslinked)): 55.7 ± 2.3 nm | CAC [4]: 30 to 50 nM
